Experimental data: patent US20210015858A1 (I MAB BIOPHARMA US, published 2021)
Numbering of substitutions follows the chain as printed.

Experiments:
[1] = biological target: T1, recombinant His-tagged human TIGIT-ECD protein (human, UniProt Q495A1 22-141); assay: SPR affinity ranking (Biacore 8K or T200)
T1 construct: extracellular domain; The ELISA text only says His-tagged human TIGIT; also called His-tagged TIGIT; human TIGIT protein; not shown: His tag
T1 sequence (looked up): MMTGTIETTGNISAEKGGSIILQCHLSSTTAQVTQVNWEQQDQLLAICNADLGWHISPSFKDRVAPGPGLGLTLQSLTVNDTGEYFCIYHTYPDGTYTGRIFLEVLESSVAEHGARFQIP

[2] = biological target: T1, recombinant His-tagged human TIGIT-ECD …; assay: SPR (Biacore T200), antibody captured, His-tagged TIGIT-ECD injected
Description: The anti-TIGIT antibodies were captured using anti-human Fc antibody or Protein A which were coated on the chip. Serial concentrations of His-tagged human TIGIT-ECD protein (0-8 nM) were injected over capture antibodies at the flow rate of 30 μl/min. The dissociation phases were 600 s or 1200 s.

[3] = biological target: T2, human TIGIT expressed on cell surface (human, UniProt Q495A1 22-244); assay: cell-based or functional assay
T2 sequence (looked up): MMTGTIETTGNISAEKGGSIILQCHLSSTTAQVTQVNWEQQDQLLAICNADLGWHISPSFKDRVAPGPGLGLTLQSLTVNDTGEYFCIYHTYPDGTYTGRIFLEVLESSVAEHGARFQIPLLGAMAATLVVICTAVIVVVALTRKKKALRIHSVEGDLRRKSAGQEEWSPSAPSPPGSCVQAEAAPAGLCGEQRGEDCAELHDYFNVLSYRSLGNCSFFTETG

[4] = biological target: T1, recombinant His-tagged human TIGIT-ECD …; assay: SPR (Biacore T200), antibody captured, His-tagged TIGIT-ECD injected; remark: listed apart in the source
Description: The binding of the antibodies to recombinant His-tagged human TIGIT-ECD protein was examined by Biacore T200 using a capture method. The anti-TIGIT antibodies were captured using anti-human Fc antibody or Protein A which were coated on chip. The serial concentrations of his-tagged human TIGIT-ECD protein (0-8 nM) were injected over capture antibodies at the flow rate of 30 μl/min. The dissociation phases were 600 s or 1200 s.

His-tagged cyno-TIGIT = biological target: T3, His-tagged cyno-TIGIT (cyno, UniProt A0A7N9I9V4 89-209); assay: ELISA
T3 construct: also called cyno TIGIT protein; not shown: His tag

[5] = biological target: T1, recombinant His-tagged human TIGIT-ECD …; assay: SPR affinity ranking (Biacore T200)

T3 sequence (A0A7N9I9V4 entry or part of it): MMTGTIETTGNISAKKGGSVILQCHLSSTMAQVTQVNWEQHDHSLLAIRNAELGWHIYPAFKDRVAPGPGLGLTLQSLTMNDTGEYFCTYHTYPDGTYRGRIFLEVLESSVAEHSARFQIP

B1: 90D9 (antibody, V domains shown)
VH: EVQLQQSGPELVKPGASVKISCKTSGYTFTENTMHWVKQSHGKSLEWIGGINPNQGGNRNNQKFKGKATLTVDKSSSTAYMELRSLTSEDSAVYYCARSGLRDYAMDYWGQGTSVTVSS
VL: DIVMTQSHKFMSTSVGDRVSITCKASQHVSTAVVWYQQKPGQSPKLLIYSPSYRYTGVPDRFTGSGSGTDFTFTISSVQAEDLAVYYCQQHYSTPWTFGGGTKLEIK
notes: Mouse hybridoma clone; also called 90D9-chimeric
[1]
  Kd: 296 pM
  koff: 3.25e-05 s⁻¹
  kon: 110000 M⁻¹ s⁻¹
[2]
  Kd: 374 pM
  koff: 0.000167 s⁻¹
  kon: 446000 M⁻¹ s⁻¹
[3]
  maximum ADCC activity (LDH release, NK92-CD16a effector cells on Jurkat-TIGIT target cells): 50%
[4]
  Kd: 252 pM
  koff: 0.000156 s⁻¹
  kon: 619000 M⁻¹ s⁻¹

B2: 101E1 (antibody, human IgG1, V domains shown)
VH: DVQLQESGPGLVKPSQSLSLTCTVTGYSITSDYAWNWIRQFPGNKLEWMGYISYSGNTRYNPSLKSRISITRDTSKNQFFLQFNSVTTEDTATYYCSRKYYGSWFPYWGQGTLVTVSA
VL: B1 VL with H28D, S30F, V34A, P51A, K103R
notes: Mouse hybridoma clone; also called 101E1-chimeric
[1]
  apparent Kd (pooled screen): 487 pM
  apparent koff (pooled screen): 0.00114 s⁻¹
  apparent kon (pooled screen): 2.34e+06 M⁻¹ s⁻¹
His-tagged cyno-TIGIT
  binding result: no binding
[2]
  apparent Kd (pooled screen): 362 pM
  apparent koff (pooled screen): 0.00105 s⁻¹
  apparent kon (pooled screen): 2.9e+06 M⁻¹ s⁻¹
[3]
  maximum ADCC activity (LDH release, NK92-CD16a effector cells on Jurkat-TIGIT target cells): 50%
[4]
  apparent Kd (pooled screen): 362 pM
  apparent koff (pooled screen): 0.00105 s⁻¹
  apparent kon (pooled screen): 2.9e+06 M⁻¹ s⁻¹

B3: 350D10 (antibody, human IgG1, V domains shown)
VH: EVKLVESGGALVQPGGSLKLSCAASGFTFSDYYMYWVRQTPEKRLEWVASITKGGGSTYYPDTLKGRFTISRDNAKNTLYLQMSRLKSEDTDMYYCARQSSYDFVMDYWGQGTSVTVSS
VL: DIVMTQSHKFMSTSVGDRVTITCKASQDVDTAVAWYQQKPGQSPKLLIYWASARHTGVPDRFTGSGSGTDFTLTISNVQSEDLADYFCQQYSNYPLTFGVGTKLELK
notes: Mouse hybridoma clone; also called 350D10-chimeric
[1]
  Kd: 71.6 pM
  koff: 0.000189 s⁻¹
  kon: 2.64e+06 M⁻¹ s⁻¹
[2]
  Kd: 82.2 pM
  koff: 0.000154 s⁻¹
  kon: 1.87e+06 M⁻¹ s⁻¹
[3]
  maximum ADCC activity (LDH release, NK92-CD16a effector cells on Jurkat-TIGIT target cells): 50%
[4]
  Kd: 82.2 pM
  koff: 0.000154 s⁻¹
  kon: 1.87e+06 M⁻¹ s⁻¹

B4: 101E1HM-1 (antibody, V domains shown)
VH: QVQLQESGPGLVKPSQTLSLTCTVSGYSITDDYAWNWIRQPPGKGLEWMGYISYSGHTKYNPSLKSRVTISRDTSKNQFSLKLSSVTAADTAVYYCARKYYGGWFPRWGQGTLVTVSS
VL: DIQMTQSPSSLSASVGDRVTITCKASQDVFTAVAWYQQKPGKAPKLLIYSASYRPTGVPSRFSGSGSGTDFTFTISSLQPEDFATYYCQQSYSTPWTFGQGTRLEIK
[5]
  Kd: 2150 pM
  koff: 0.00107 s⁻¹
  kon: 496000 M⁻¹ s⁻¹

B5: 101E1HM-2 (antibody, V domains shown)
VH: B4 VH with H57N, K59M, R107I
VL: B4 VL with P55H
[5]
  Kd: 1480 pM
  koff: 0.00191 s⁻¹
  kon: 1.29e+06 M⁻¹ s⁻¹

B6: 101E1HM-3 (antibody, V domains shown)
VH: B4 VH with H57D, R107V
VL: B4 VL with Y53N, P55N, S91Q
[5]
  Kd: 554 pM
  koff: 0.000717 s⁻¹
  kon: 1.29e+06 M⁻¹ s⁻¹

B7: 101E1HM-4 (antibody, V domains shown)
VH: B4 VH with K59R, G103S, R107D
VL: B4 VL with P55M
[5]
  Kd: 3080 pM
  koff: 0.00439 s⁻¹
  kon: 1.43e+06 M⁻¹ s⁻¹

B8: 101E1HM-5 (antibody, V domains shown)
VH: B4 VH with H57I, K59R, R107Q
VL: B4 VL with P55D
[5]
  Kd: 1290 pM
  koff: 0.00209 s⁻¹
  kon: 1.63e+06 M⁻¹ s⁻¹

B9: 116H8 (antibody, human IgG1, V domains shown)
VH: EFQLQQSGPELVKPGASVKISCRASGYSFTAYSMNWVQQTNGKSLEWIGVINPKFGTINYNQKFKGKATLTVDQSSSAAYIQLNSLTSEDSAVYFCARNGNFAWYFDVWGTGTTVTVSS
VL: DIQMTQSPASLSASVGETVTITCRASENIFSYLAWYQQKQGKSPQLLVYNAKTLPEGVPSRFSGSGSGTQFSLKINSLQSEDFGSYYCQHHYGVPWTFGGGTKLEIK
notes: Mouse hybridoma clone
His-tagged cyno-TIGIT
  binding result: no binding

B10: 131A12 (antibody, human IgG1, V domains shown)
VH: B9 VH with I58T, K65R, G66D, Q74H, I81M
VL: B9 VL with V48A, K52E, P55A, N76S, Y92F, K103N
notes: Mouse hybridoma clone
His-tagged cyno-TIGIT
  binding result: no binding

B11: 167F7 (antibody, human IgG1, V domains shown)
VH: B9 VH with G66D, Q74H, I81M
VL: B9 VL with N28S, V48A, K52E, P55A, S85I, Y92F
notes: Mouse hybridoma clone
[4]
  Kd: 24 pM
  koff: 0.000107 s⁻¹
  kon: 4.45e+06 M⁻¹ s⁻¹

B12: 222H4 (antibody, human IgG1, V domains shown)
VH: EVQLQQSGPELVKPGASVKISCKTSGYTFSDYTLHWVKQSHGKNLEWIGGFNPNNGGTNYNQKFKVKASLTIDKSSNTVYMELRSLSSEDSAVYYCARNWAFDYWGQGTTLTVSS
VL: DIVMTQSHKIMSTSLGDRVNITCKASQHVSTAVAWYQQRPGQSPRLLIYSASYRHTGVPDRFTGSGSGTDITFTISSVQTEDLAVYYCQQYYTTPWTFGGGTKLEIK
notes: Mouse hybridoma clone
[4]
  Kd: 242 pM
  koff: 0.000453 s⁻¹
  kon: 1.87e+06 M⁻¹ s⁻¹

B13: 221F11 (antibody, human IgG1, V domains shown)
VH: EIQLQQTGPELVKPGASVNISCKASGYSFTDYIMIWVKQSHGKSLEWIGNIHPYFGNSHYNLKFKGKATLTVDKSSTTAYMQLNSLTSEDSAVYYCARRGITSAHFDYWGQGTTLTVSS
VL: DIVLTQSPASLAVSLGQRATISCRASKSVSTSGYSYMHWYQQKPGQPPKLLIYRASNLESGVPARFSGSGSGTDFTLNIHPVEEEDAATYYCQHSGDLPWTFGGGTKLEIK
notes: Mouse hybridoma clone
His-tagged cyno-TIGIT
  binding result: no binding

B14: 143B6 (antibody, human IgG1, V domains shown)
VH: EVQLVESGGGLVMPGGSLKLSCAASGFTFSGFVMSWVRQTPEKRLEWVATINDAGTYTYYSDNLKGRFTISRDNAKNNLYLQMSHLKSEDAGMYYCARDGGLRAWFPYWGPGTLVTVSA
VL: DIQLTQSPASLSASVGETVTITCRASENIYSYLAWYQLKQGKSPQLLVFNTKTLAEGVPSRFSGSGSGTQFSLRIDSLQLEDFGSFYCQHHIGSPRTFGGGTTLEIR
notes: Mouse hybridoma clone
His-tagged cyno-TIGIT
  binding result: no binding
